Tests used:
Experiment in all cases: purified protein
Settings in all cases: apparent, sulfate donor, acceptor phenol 100 mM, Tris/HCl 50 mM pH 8.0, 30 °C
purified protein [1] = substrate: O=[N+]([O-])c1ccc(OS(=O)(=O)O)cc1; format: biochemical, Dehalobacterium formicoaceticum
purified protein [2] = substrate: O=[N+]([O-])c1ccc(OS(=O)(=O)O)cc1; format: biochemical, Desulfitobacterium hafniense
purified protein [3] = substrate: O=[N+]([O-])c1ccc(OS(=O)(=O)O)cc1; format: biochemical, Desulfitobacterium dehalogenans
purified protein [4] = substrate: O=[N+]([O-])c1ccc(OS(=O)(=O)O)cc1; format: biochemical, Hungatella effluvii
purified protein [5] = substrate: O=[N+]([O-])c1ccc(OS(=O)(=O)O)cc1; format: biochemical, Desulfosporosinus orientis

B1: ASSTDfor (Dehalobacterium formicoaceticum) (protein)
chain: MNAIKSEQVPHIIHQQEKLEKAFLAEFAAGGYTLYNPLVKINPYGICPLTAMVLFETPVATEATVVVRGKEHLGDIRHTFPAGKKHILPIYGLYADYENKIELIMANGQKNTIKIQTEPLHTDVPVATSIKTTPEYMGNNLMFLTAAMRSMPVGYDYAGDIRWYATKNFAFDLKRLPNGHILVGTERLVKMPYFTTGLYEMAFSGKIFKEYVLPSGYHHDQFPMEDGNILVLTFDFYSGTVEDMCVLLDAKTGEVLKSWDYKKVLPQDVAGSGSQDEHDWFHNNAVWYDKKTNSLSLSGRHQDAVINIDYETGELNWIIGDPEGWPKEMVDKYFFTPVGDGDFDWQYEQHACVVLPDGDIMLFDNGHFRAKNKENYWPNSKNFSRGVRYRIDTEKMTIKQVWQYGKERGAEFFSPYICNVEYYNEGHYLVHSGGIGYENGKPCEGMAVMKTMQPEFKDNVYTFNSITCELKDDVLMYELQVPANCYRAEKLPLYYANETAELGAGEILGNLIKTEETKMKIKAEETGALVPDHFQASITEEEDRFLFNAIFDAGEMAQLLLVNEAGEIKRYPINTVPQAFQAMCVGTFQKADPRNIDTFINKIGLSGNYQVKLVAEEKVYETGVTIKA
notes: recombinant from E. coli BL21(DE3), C-terminal His-tag, IMAC purified, about 70-76 kDa
Km (purified protein [1]): 500 µM
Vmax (purified protein [1]): 5.3 µmol/min/mg
kcat (purified protein [1]): 6.3 s⁻¹
kcat/Km (purified protein [1]): 12600 M⁻¹ s⁻¹

B2: ASSTC (Desulfitobacterium hafniense) (protein)
chain: MVDYEYCPHIITKQNELEKAFMEKFEAGNYSLENPLVILNPYGVAPLTAMILFNTPIACEAKIIVKGKEHPGDIQHTFPAATRHILPVYGLYGGYKNTIKIILSTSSSNTITIQTEPLPKSVAIPSSIKTTSEYMGNNLMFLSPSMASLTVGYDYAGDVRWYCSLNVCFDLKRMPNGHLLIGTGRLVKVPYYTSGLYEMAFSGKIFKEFILPGGYHHDQFVMEDGNLLVLTQDFYADTVEDVCVLIDPHSGDILKKWDFKNILPQDVAGSGTQTAHDWFHNNAVWYDNRTNSLTLSGRHQDVIINIDYETGGLNWMIGDPEGWPQELVDKYFFTPAGDGEFDWQYEQHGCVVLPDGDIMVFDNGHYRSKNKENYRLNKDNFSRGVRYRIDTERMTIQQIWQYGKERGADFFSPFICNVEYYDEGHYMVHSGGIGYENGKPCEGLAVGKSKNPKFKDNVYTLNSITCELVNDELVYELQVPANFYRAEKLPIYYANEVAELCEGQRLGQFVETQTTRMKIKALETKEPIPEHYQAKIVEEEDRFCLNAIYESGETAQLLLVSESDEILRYPINTVAQAYGAMCVGTFQKSDPRNVDTFVTKTGLSGKYQVKLVAEDKIYETGVTISA
notes: as for B1
Km (purified protein [2]): 200 µM
Vmax (purified protein [2]): 0.6 µmol/min/mg
kcat (purified protein [2]): 0.7 s⁻¹
kcat/Km (purified protein [2]): 3600 M⁻¹ s⁻¹

B3: ASSTDdeh (Desulfitobacterium dehalogenans ATCC 51507) (protein)
chain: MMNPIKSEQIPHIIHRQKDFEEAFLAEFSAGHYTLANPLVELNPYEICPLTAMILFETPVSTEATIIVRGKEHPGDIRHTFPANKKHILPIYGLYADYENKVEIVLANGQRNTVTIKTGPLHPDVPVATSIKTTSEYMGNNLMFLTAAMKAMPVGYDYAGEVRWYATRNFAFDLKRIPNGHILIGTERLVKMPYFTTGLYEMAFSGKIFKEYRLPSGYHHDQFVMEDGNILVLTFDFYSGTVEDMCVLLDAETGEILKSWDYKKVLPQDVAGSGSQDAHDWFHNNAVWYDRKTNSLSLSGRHQDAVINIDYETGELNWIIGDPEGWPQDMVDQYFFTPVGEGEFDWQYEQHACVVLPDGDIMLFDNGHFRAKNKENYLPNSQNFSRGVRYRIDTEKMTIEQVWQYGKERGAEFFSPYICNVEYYDEGHYLVHSGGIGYENGETCEGMAVMKVLQPEFKDNVYTFNSITCELKDDVLMYELQVPANCYRAEKLPLYYAYETAELGEGKILGNLVETQETKMKIKAVETGERVPDHYEASITEEEDRILLNAIFDAGELAQLLLVDGDGGVKRYPISTVPQAFQAMCVGTFQKADPRNIDVYINKTGLSGKYQVKLIAEEKLYETGVSITA
notes: as for B1
Km (purified protein [3]): 400 µM
Vmax (purified protein [3]): 21.2 µmol/min/mg
kcat (purified protein [3]): 25.3 s⁻¹
kcat/Km (purified protein [3]): 63200 M⁻¹ s⁻¹

B4: ASSTHeff (Hungatella effluvii) (protein)
chain: MIRYEKKNSLITQQAEAEQKFLETFEAGAYTASSPLVVRNPYLISPLSAMILFKTAVKQEVTLTVKGKEPEGDISHTFPADTIHILPVYGLYADCENTVELILSGGERETVMIKTEPLPPEVPVPTFCKGSGAHMGDNVIFLTQTSKADALACDYRGDVRWYLTVNVCFDMKRLANGHLLVGTDRLIKLPYYVSGVYEMGVHGKIYREYRLPGGYHHDTFEMEDGNILMLSQIPDRDTVEDVLVLVNRQTGAIVRTWDYREILPYDCQTTWSGSASAHDWFHNNAVWYDKKTDSITLSGRHQDAVINIDFKTGALNWILGDPEGWPEEYVEKYFFRPISEPFEWSYEQHGVVVCPDGDIMMFDNGHYRSKLKAHYSKAKDSYSRGVRYHIDREARTIEQVWQYGKERGADFFSPYICNVEYYDEGRYMVHSGGIAYKDGEPLEGLGSMDGTGEGCTLNAITCELVNDEVVYELHVPSNVFRAEKLPMYYAGETAELGAGKTLGSMSRTGEFETEIPAVCTGDLIPEHYEASVTEEEDRILFNATFEKGELAMLLLEEEDGKAHRYYINTSAAKNFEAMCVGTFLKNDPRNVDVYVNKCGMSKNVKVRVLLEDKIYETGVEIRME
notes: as for B1
Km (purified protein [4]): 2100 µM
Vmax (purified protein [4]): 39.8 µmol/min/mg
kcat (purified protein [4]): 46.9 s⁻¹
kcat/Km (purified protein [4]): 22300 M⁻¹ s⁻¹

B5: ASSTDor (Desulfosporosinus orientis DSM 765) (protein)
chain: MSVKFKSFDHIITEQYQAEQAFLTEYQKGEYSFNNPYVKLNPYIIAPLTALVMFKTAQPTTVTITVKGKDKNGDICFNFPTAIEHLIPVYGLYANYANKVELALGDGKTNVITIQTEAAPEIVKLPTQINTTADYFEDNIMFVSPTSTAATAGYDYNGDVRWYGSLNFAFDIKRAKNGRLLLGTHRLVTPPYHTTGLYEMGMIGKIYKEYRLPSGYHHDQFEMEDGNLLILSQDLPRGTVEDMCVLVDRKTGQIIKSWDYQKVLPTNAGGSGSQDSHDWFHNNAVWYDKKTNSLTLSGRHQDIIINLDFETGALNWIIGDPEGWPKELVDNYFFKPVGKGEFDWQYEQHACVVCPNGDIMAFDNGHWRSKIKENYVTANDNFSRGVRYRIDTKKMEIEQVWQYGKERGAEFFSTYICNVEYYDEGHYLIHSGGIGSIDGEALNKPPVQFRGEDEKKVVFNSITVELKDDVMMYEMQLPANYYRAEKLKLYAAEDVLTLGKGELLGTLGVTEEFTTIPPAEEGGMVPEKYNVKLGLEEDRLIFKATFEKGQMVLLQLEGETTHSYFVPTTKRPFLAMCVGTFQESDDRAVEFPVSREGLAGGFRVSLIVDAYKYETGVTIKL
notes: as for B1
Km (purified protein [5]): 1000 µM
Vmax (purified protein [5]): 0.5 µmol/min/mg
kcat (purified protein [5]): 0.6 s⁻¹
kcat/Km (purified protein [5]): 600 M⁻¹ s⁻¹

Source: publication PMC11576661, “Biocatalytic sulfation of aromatic and aliphatic alcohols catalyzed by arylsulfate sulfotransferases” (Applied Microbiology and Biotechnology, 2024)
